# Measurements as given in the supplement of paper PMC7877785.
# ± gives the uncertainty stated by the source.
# Test: self-splicing fitness, log relative to wild type (ln ratio); higher = more splicing; Tetrahymena group I intron in knt gene, E. coli kanamycin selection, DiMSum; sequences stand for … in CUCUCU…GGAGGGAAAAGUUAUCAGGCAUGCACCUGGUAGCUAGUCUUUAAACCAAUAGAUUGCAUCGGUUUAAAAGGCAAGACCGUCAAAUUGCGGGAAAGGGGUCAACAGCCGUUCAGUACCAAGUCUCAGGGGAAACUUUGAGAUGGCCUUGCAAAGGGUAUGGUAAUAAGCUGACGGACAUGGUCCUAACCACGCAGCCAAGUCCUAAGUCAACAGAUCUUCUGUUGAUAUGGAUGCAGUUCACAGACUAAAUGUCGGUCGGGGAAGAUGUAUUCUUCUCAUAAGAUAUAGUCGGACCUCUCCUUAAUGGGAGCUAGCGGAUGAAGUGAUGCAACACUGGAGCCGCUGGGAACUAAUUUGUAUGCGAAAGUAUAUUGAUUAGUUUUGGAGUACUCGUGGUCG
# Outline: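 Colonies from six replicate transformations of E. coli BL21(DE3) were pooled and amplicon-sequenced on an Illumina HiSeq 2500. The library placed an intron with all eight P1ex-region nucleotides randomised inside the knt kanamycin-resistance gene on pET-22b(+), and cells grew overnight at 37°C or 30°C on LB agar with or without 25 μg/mL kanamycin (plus 100 μg/mL carbenicillin, 50 μM IPTG, 0.2% rhamnose). Fitness is the DiMSum error-weighted combination of wild-type-normalised replicate fold changes, kanamycin versus none.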
Sequence,self-splicing fitness (ln) (30 °C),self-splicing fitness (ln) (37 °C)
ACUUAGCAAUAUUACGUGGA,-2.47 ± 0.13,-2.7 ± 0.16
AGAAAGCAAUAUUACGAAAA,-1.74 ± 0.13,-0.577 ± 0.15
AGAAAGCAAUAUUACGAACG,-0.489 ± 0.084,-0.004 ± 0.12
AGAAAGCAAUAUUACGAAUU,-0.791 ± 0.089,-1.32 ± 0.11
AGAAAGCAAUAUUACGACAA,-0.576 ± 0.087,0.0351 ± 0.089
AGAAAGCAAUAUUACGACAG,-2.36 ± 0.11,-0.954 ± 0.11
AGAAAGCAAUAUUACGACUC,-1.53 ± 0.21,-0.214 ± 0.2
AGAAAGCAAUAUUACGAUUG,-3.82 ± 0.27,-1.93 ± 0.21
AGAAAGCAAUAUUACGCAUG,-1.66 ± 0.1,-0.374 ± 0.1
AGAAAGCAAUAUUACGCCCA,0.247 ± 0.12,0.167 ± 0.2
AGAAAGCAAUAUUACGCCCG,-0.679 ± 0.19,-0.0334 ± 0.19
AGAAAGCAAUAUUACGCCGA,-1.29 ± 0.15,-0.795 ± 0.15
AGAAAGCAAUAUUACGCUAC,-3.25 ± 0.39,–
AGAAAGCAAUAUUACGGAGA,-3 ± 0.22,-2.79 ± 0.23
AGAAAGCAAUAUUACGGCAA,0.0585 ± 0.1,-0.187 ± 0.12
AGAAAGCAAUAUUACGGCCU,0.484 ± 0.11,0.212 ± 0.12
AGAAAGCAAUAUUACGGCUG,-0.141 ± 0.11,-0.414 ± 0.16
AGAAAGCAAUAUUACGGGAG,-2.56 ± 0.097,-1.97 ± 0.12
AGAAAGCAAUAUUACGGGCA,-0.6 ± 0.14,-0.0746 ± 0.12
AGAAAGCAAUAUUACGGGUA,-1.32 ± 0.092,-1.01 ± 0.095
AGAAAGCAAUAUUACGGUGA,-0.65 ± 0.12,-0.655 ± 0.14
AGAAAGCAAUAUUACGGUGC,-2.39 ± 0.15,-2.6 ± 0.31
AGAAAGCAAUAUUACGUAGG,-2.89 ± 0.14,-2.16 ± 0.15
AGAAAGCAAUAUUACGUAUA,-2.13 ± 0.12,-1.66 ± 0.13
AGAAAGCAAUAUUACGUCCU,-0.0571 ± 0.065,0.432 ± 0.089

Sequence,self-splicing fitness (ln) (30 °C),self-splicing fitness (ln) (37 °C)
AGAAAGCAAUAUUACGUCGG,-1.37 ± 0.088,-1.04 ± 0.11
AGAAAGCAAUAUUACGUGAG,-1.39 ± 0.065,-0.952 ± 0.099
AGAAAGCAAUAUUACGUGCU,-0.713 ± 0.063,-1.28 ± 0.092
AGAAAGCAAUAUUACGUGUC,-4.33 ± 0.31,-1.67 ± 0.18
AGAAAGCAAUAUUACGUUAA,-2.23 ± 0.14,-1.44 ± 0.17
AGAAAGCAAUAUUACGUUAU,-2.29 ± 0.099,-1.58 ± 0.13
AGACAGCAAUAUUACGAACU,-0.675 ± 0.076,0.326 ± 0.096
AGACAGCAAUAUUACGACAG,-3.42 ± 0.14,-0.41 ± 0.12
AGACAGCAAUAUUACGACCC,-0.868 ± 0.29,-0.564 ± 0.3
AGACAGCAAUAUUACGACUU,-0.384 ± 0.074,0.347 ± 0.099
AGACAGCAAUAUUACGAGCU,-1.22 ± 0.085,-1.15 ± 0.11
AGACAGCAAUAUUACGAGUG,-4.11 ± 0.16,-1.9 ± 0.092
AGACAGCAAUAUUACGAUAC,-2.64 ± 0.27,-1.79 ± 0.25
AGACAGCAAUAUUACGCCGC,–,-1.62 ± 0.38
AGACAGCAAUAUUACGCCUC,-4.48 ± 0.36,-2.08 ± 0.21
AGACAGCAAUAUUACGCUCG,-0.153 ± 0.076,0.136 ± 0.089
AGACAGCAAUAUUACGGAGA,-3.65 ± 0.18,-2.55 ± 0.29
AGACAGCAAUAUUACGGAUC,-3.16 ± 0.2,-0.56 ± 0.17
AGACAGCAAUAUUACGGCCU,-1.2 ± 0.085,-0.234 ± 0.09
AGACAGCAAUAUUACGGGCC,-1.45 ± 0.1,-1.21 ± 0.11
AGACAGCAAUAUUACGGUAG,-3.97 ± 0.22,-0.604 ± 0.092
AGACAGCAAUAUUACGGUGC,-2.82 ± 0.18,-1.89 ± 0.18
AGACAGCAAUAUUACGUACU,-0.834 ± 0.062,-0.36 ± 0.086
AGACAGCAAUAUUACGUAGC,-2.07 ± 0.19,-2.14 ± 0.23
AGACAGCAAUAUUACGUAUC,-3.63 ± 0.16,-1.52 ± 0.15

Sequence,self-splicing fitness (ln) (30 °C),self-splicing fitness (ln) (37 °C)
AGACAGCAAUAUUACGUCAC,-3 ± 0.23,-3.41 ± 0.19
AGACAGCAAUAUUACGUGAA,-2.03 ± 0.14,-0.982 ± 0.15
AGACAGCAAUAUUACGUGGA,-3.96 ± 0.24,-2.37 ± 0.2
AGACAGCAAUAUUACGUGGU,-3.66 ± 0.14,-2.13 ± 0.12
AGACAGCAAUAUUACGUUGG,-1.95 ± 0.094,-1.99 ± 0.14
AGACAGCAAUAUUACGUUUC,-4.68 ± 0.36,-3.7 ± 0.42
AGAGAGCAAUAUUACGAAAG,-4.41 ± 0.27,-2.42 ± 0.22
AGAGAGCAAUAUUACGACAC,–,-1.4 ± 0.26
AGAGAGCAAUAUUACGAUAA,–,-2.71 ± 0.28
AGAGAGCAAUAUUACGCAAC,–,-1.44 ± 0.2
AGAGAGCAAUAUUACGCCAA,-2.71 ± 0.2,-3.06 ± 0.43
AGAGAGCAAUAUUACGCCAG,-3.51 ± 0.35,-2.94 ± 0.38
AGAGAGCAAUAUUACGCGUG,-3.83 ± 0.36,-1.44 ± 0.18
AGAGAGCAAUAUUACGGACG,-2.64 ± 0.3,-1.61 ± 0.44
AGAGAGCAAUAUUACGGGGA,-2.46 ± 0.25,-1.84 ± 0.28
AGAGAGCAAUAUUACGUAAA,-3.76 ± 0.31,-3.12 ± 0.31
AGAGAGCAAUAUUACGUCAC,–,-0.851 ± 0.42
AGAGAGCAAUAUUACGUCUC,-2.95 ± 0.43,-3.37 ± 0.47
AGAGAGCAAUAUUACGUGAC,–,-1.43 ± 0.42
AGAUAGCAAUAUUACGACAU,-0.0342 ± 0.013,0.0833 ± 0.033
AGAUAGCAAUAUUACGACGU,0.446 ± 0.097,0.203 ± 0.098
AGAUAGCAAUAUUACGAGCG,-0.464 ± 0.12,-1.08 ± 0.15
AGAUAGCAAUAUUACGCAUA,-2.23 ± 0.16,-0.55 ± 0.18
AGAUAGCAAUAUUACGGCAG,-0.945 ± 0.12,-0.735 ± 0.14
AGAUAGCAAUAUUACGGGGC,-2.65 ± 0.2,-3.29 ± 0.37

Sequence,self-splicing fitness (ln) (30 °C),self-splicing fitness (ln) (37 °C)
AGAUAGCAAUAUUACGGUUG,-3.03 ± 0.17,-2.57 ± 0.29
AGAUAGCAAUAUUACGUAGG,-3.49 ± 0.17,-1.41 ± 0.18
AGAUAGCAAUAUUACGUCAA,-1.15 ± 0.09,-1.03 ± 0.1
AGAUAGCAAUAUUACGUCGG,-1.52 ± 0.14,-1.26 ± 0.16
AGAUAGCAAUAUUACGUGAG,-1.89 ± 0.072,-0.685 ± 0.08
AGAUAGCAAUAUUACGUGGA,-3.21 ± 0.25,-2.37 ± 0.28
AGAUAGCAAUAUUACGUGUG,-2.48 ± 0.097,-0.626 ± 0.098
AGCAAGCAAUAUUACGAAGU,-3.42 ± 0.27,-1.58 ± 0.25
AGCAAGCAAUAUUACGACAA,-1.54 ± 0.15,-0.436 ± 0.14
AGCAAGCAAUAUUACGACAG,-2.65 ± 0.14,-1.45 ± 0.15
AGCAAGCAAUAUUACGCCAU,-3.14 ± 0.18,-1.63 ± 0.13
AGCAAGCAAUAUUACGCCCC,0.415 ± 0.15,-0.728 ± 0.18
AGCAAGCAAUAUUACGCUCC,-3.78 ± 0.4,-1.58 ± 0.39
AGCAAGCAAUAUUACGCUGC,-1.58 ± 0.2,-3.1 ± 0.31
AGCAAGCAAUAUUACGCUUA,-2.94 ± 0.15,-1.71 ± 0.11
AGCAAGCAAUAUUACGGAAU,-3.44 ± 0.15,-0.957 ± 0.093
AGCAAGCAAUAUUACGGCUA,-1.07 ± 0.088,-0.869 ± 0.093
AGCAAGCAAUAUUACGGGGA,-2.7 ± 0.14,-2.1 ± 0.14
AGCAAGCAAUAUUACGGUAC,-4.18 ± 0.2,-2.16 ± 0.16
AGCAAGCAAUAUUACGGUAU,-2.35 ± 0.075,-0.546 ± 0.068
AGCAAGCAAUAUUACGUAUA,-2.91 ± 0.15,-1.85 ± 0.15
AGCAAGCAAUAUUACGUAUC,-3.34 ± 0.26,-1.41 ± 0.2
